Experimental data from patent US20070086998A1 (GPC BIOTECH, published 2007).

T1: HLA-DR on PRIESS cells (DRA*0101/DRB1*0401) (human, UniProt P01903 26-254; P01911 30-266)
T1 MHC II alpha: not shown
T1 MHC II beta: not shown

B1: MS-GPC-8-6-47 (Fab) (Fab, V domains shown)
VH: QVQLKESGPALVKPTQTLTLTCTFSGFSLSTSGVGVGWIRQPPGKALEWLALIDWDDDKYYSTSLKTRLTISKDTSKNQVVLTMTNMDPVDTATYYCARSPRYRGAFDYWGQGTLVTVSS
VL: DIVLTQPPSVSGAPGQRVTISCSGSESNIGSNYVSWYQQLPGTAPKLLIYDNNQRPSGVPDRFSGSKSGTSASLAITGLQSEDEADYYCQSYDYDHYVFGGGTKLTVLG
B2: MS-GPC-8-6-2 (IgG form) (antibody, V domains shown)
VH: QVELKESGPALVKPTQTLTLTCTFSGFSLSTSGVGVGWIRQPPGKALEWLALIDWDDDKYYSTSLKTRLTISKDTSKNQVVLTMTNMDPVDTATYYCARSPRYRGAFDYWGQGTLVTVSS
VL: DIVLTQPPSVSGAPGQRVTISCSGSESNIGSNYVHWYQQLPGTAPKLLIYDNNQRPSGVPDRFSGSKSGTSASLAITGLQSEDEADYYCQSYDYDHYVFGGGTKLTVLG
B3: MS-GPC-8-6-2 (Fab) (Fab, V domains shown)
VH: QVQLKESGPALVKPTQTLTLTCTFSGFSLSTSGVGVGWIRQPPGKALEWLALIDWDDDKYYSTSLKTRLTISKDTSKNQVVLTMTNMDPVDTATYYCARSPRYRGAFDYWGQGTLVTVSS
VL: DIVLTQPPSVSGAPGQRVTISCSGSESNIGSNYVHWYQQLPGTAPKLLIYDNNQRPSGVPDRFSGSKSGTSASLAITGLQSEDEADYYCQSYDYDHYVFGGGTKLTVLG
B4: MS-GPC-8-6 (IgG form) (antibody, V domains shown)
VH: QVELKESGPALVKPTQTLTLTCTFSGFSLSTSGVGVGWIRQPPGKALEWLALIDWDDDKYYSTSLKTRLTISKDTSKNQVVLTMTNMDPVDTATYYCARSPRYRGAFDYWGQGTLVTVSS
VL: DIVLTQPPSVSGAPGQRVTISCSGSSSNIGSNYVSWYQQLPGTAPKLLIYDNNQRPSGVPDRFSGSKSGTSASLAITGLQSEDEADYYCQSYDYDHYVFGGGTKLTVLG
B5: MS-GPC-8-6-19 (Fab) (Fab, V domains shown)
VH: QVQLKESGPALVKPTQTLTLTCTFSGFSLSTSGVGVGWIRQPPGKALEWLALIDWDDDKYYSTSLKTRLTISKDTSKNQVVLTMTNMDPVDTATYYCARSPRYRGAFDYWGQGTLVTVSS
VL: DIVLTQPPSVSGAPGQRVTISCSGSESNIGSNYVAWYQQLPGTAPKLLIYDNNQRPSGVPDRFSGSKSGTSASLAITGLQSEDEADYYCQSYDYDHYVFGGGTKLTVLG
B6: MS-GPC-8-6-13 (IgG4 form) (antibody, V domains shown)
VH: QVELKESGPALVKPTQTLTLTCTFSGFSLSTSGVGVGWIRQPPGKALEWLALIDWDDDKYYSTSLKTRLTISKDTSKNQVVLTMTNMDPVDTATYYCARSPRYRGAFDYWGQGTLVTVSS
VL: DIVLTQPPSVSGAPGQRVTISCSGSESNIGANYVTWYQQLPGTAPKLLIYDNNQRPSGVPDRFSGSKSGTSASLAITGLQSEDEADYYCQSYDYDHYVFGGGTKLTVLG
B7: MS-GPC-8-17 (Fab) (Fab, V domains shown)
VH: QVQLKESGPALVKPTQTLTLTCTFSGFSLSTSGVGVGWIRQPPGKALEWLALIDWDDDKYYSTSLKTRLTISKDTSKNQVVLTMTNMDPVDTATYYCARSPRYRGAFDYWGQGTLVTVSS
VL: DIVLTQPPSVSGAPGQRVTISCSGSSSNIGSNYVSWYQQLPGTAPKLLIYDNNQRPSGVPDRFSGSKSGTSASLAITGLQSEDEADYYCQSYDFSVYVFGGGTKLTVLG
B8: MS-GPC-8-27-10 (Fab) (Fab, V domains shown)
VH: QVQLKESGPALVKPTQTLTLTCTFSGFSLSTSGVGVGWIRQPPGKALEWLALIDWDDDKYYSTSLKTRLTISKDTSKNQVVLTMTNMDPVDTATYYCARSPRYRGAFDYWGQGTLVTVSS
VL: DIVLTQPPSVSGAPGQRVTISCSGSESNIGANYVNWYQQLPGTAPKLLIYDNNQRPSGVPDRFSGSKSGTSASLAITGLQSEDEADYYCQSYDMNVHVFGGGTKLTVLG

Experiments:
Assay in all cases: cell-based or functional assay
[1] = target: chimeric DR-IE (human-mouse chimeric MHC class II molecule) (human; murine)
[2] = target: T1, HLA-DR on PRIESS cells …
[3] = target: T1, HLA-DR on PRIESS cells …
HLA-DR on LG-2 cells = HLA-DR on LG-2 cells (human)

Binder | IC50, IL-2 secretion of T-Hyb 1 cells stimulated by 0401-IE transgenic APC; Fab [1] | Maximum inhibition(%), IL-2 secretion of T-Hyb 1 cells; Fab [1] | IC50, IL-2 secretion of T-Hyb 1 cells stimulated by 0401-IE transgenic APC; IgG [1] | Maximum inhibition(%), IL-2 secretion of T-Hyb 1 cells; IgG [1] | also measured
B1 | 2.6 nM (Fab concentration/2) | 100% |  |  | 
B2 |  |  | 3.6 nM | 100% | 
B3 | 4.7 nM (Fab concentration/2) | 100% |  |  | EC50 of cell killing for bivalent agent; PRIESS; Fab cross-linked with anti-FLAG M2 [2]: 8 nM
B4 |  |  | 6.7 nM | 100% | 
B5 | 5.3 nM (Fab concentration/2) | 100% |  |  | 
B6 |  |  | 0.42 nM | 100% | % Killing by mAb; PRIESS (DR 4,4); 50 nM, 4 h [3]: 74%; % Killing by mAb; LG-2 (DR 1,1); 50 nM, 4 h (HLA-DR on LG-2 cells): 82%
B7 |  |  |  |  | EC50 of cell killing for bivalent agent; PRIESS; Fab cross-linked with anti-FLAG M2 [2]: 16 nM
B8 | 7.3 nM (Fab concentration/2) | 100% |  |  | 
